Data: patent publication US20210395361A1 (Alector, published 2021)

T1: Histidine-tagged human Siglec-5 (NovoProtein) (human, UniProt O15389 17-434, limits assumed)
T1 construct: Bought soluble protein; also called His-tagged human Siglec-5; not shown: histidine tag
T1 sequence: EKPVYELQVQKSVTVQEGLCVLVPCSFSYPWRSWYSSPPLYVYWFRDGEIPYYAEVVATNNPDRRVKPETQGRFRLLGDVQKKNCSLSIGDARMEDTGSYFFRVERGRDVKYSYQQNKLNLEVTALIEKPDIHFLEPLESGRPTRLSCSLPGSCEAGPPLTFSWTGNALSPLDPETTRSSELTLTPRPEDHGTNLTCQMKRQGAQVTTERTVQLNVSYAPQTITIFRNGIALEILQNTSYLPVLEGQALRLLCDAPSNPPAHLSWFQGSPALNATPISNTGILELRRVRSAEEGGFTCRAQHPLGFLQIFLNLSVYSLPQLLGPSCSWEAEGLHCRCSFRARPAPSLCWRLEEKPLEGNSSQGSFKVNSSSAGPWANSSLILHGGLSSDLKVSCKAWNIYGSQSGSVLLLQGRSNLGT

T2: human Siglec-14 (human, UniProt Q08ET2 17-396)
T2 construct: also called CHO-S14; CHO-S hSiglec-14
T2 sequence: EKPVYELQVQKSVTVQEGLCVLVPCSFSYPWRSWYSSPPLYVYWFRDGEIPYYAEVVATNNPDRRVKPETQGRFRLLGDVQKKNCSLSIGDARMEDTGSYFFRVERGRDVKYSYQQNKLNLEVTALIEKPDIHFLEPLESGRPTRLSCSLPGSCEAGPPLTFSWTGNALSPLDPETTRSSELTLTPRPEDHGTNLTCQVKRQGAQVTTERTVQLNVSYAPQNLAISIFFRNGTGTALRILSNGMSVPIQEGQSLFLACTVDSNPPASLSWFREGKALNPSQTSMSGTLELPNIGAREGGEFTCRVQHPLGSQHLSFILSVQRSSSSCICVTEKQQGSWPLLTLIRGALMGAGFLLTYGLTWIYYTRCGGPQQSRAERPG


Legend:
[1] = biological target: T1, Histidine-tagged human Siglec-5 …; assay: array SPR, antibody immobilized, His-tagged human Siglec-5 (0-500 nM) in solution; apparent affinity
Protocol: The apparent binding affinities of the anti-Siglec-5 antibodies were measured by array surface plasmon resonance (SPR), according to standard techniques (Abdiche, et al. (2016) MAbs 8:264-277). Briefly, anti-Siglec-5 antibodies were immobilized on a HC 30M chip at four different densities, at antibody concentration of 10 μg/mL, 2.5 μg/mL, 0.63 μg/mL, and 0.16 μg/mL. Varying concentrations (0-500 nM) of Histidine-tagged human Siglec-5 or cynomolgus Siglec-5 (NovoProtein) were then bound to the captured anti-Siglec-5 surface (5 min injection time, 15 min dissociation time) in HBS-EP⁺/1 mg/mL BSA running buffer. Kinetic analysis was performed using Carterra software to extract association and dissociation rate constants (kₐ and kd, respectively) for each antibody. Apparent affinity constants (KD) were calculated from the ratio kd/kₐ. None of the anti-Siglec-5 antibodies bound to cynomolgus Siglec-5 protein.

human Siglec-14 = biological target: T2, human Siglec-14; assay: FACS, CHO cells stably transfected with human Siglec-14 (CHO-S14), fluorescent secondary antibody; y-axis Binding (Fold over background); antibody concentration not shown
Protocol: The anti-Siglec-5 antibodies were evaluated for their ability to bind to CHO cells which were stably transfected with human Siglec-5 (CHO-S5) or human Siglec-14 (CHO-S14). The anti-Siglec-5 antibodies were also evaluated for their ability to bind to primary human neutrophils. Cells were incubated with various dilutions of the anti-Siglec-5 antibodies for 30 minutes on ice in the dark, followed by a 30-minute incubation with a fluorescently-conjugated anti-human IgG secondary antibody. Cells were washed twice in FACS buffer (PBS+2% FBS, 2 mM EDTA), and flow cytometry was performed on a BD FACS Canto. Data were analyzed using FlowJo software (Ashland, Oreg.). In the figures, “hIgG1” and “mIgG1” refer to isotype control antibodies, and “S5/14 1A5” refers to a commercially available antibody that binds both Siglec-5 and Siglec-14 (BioLegend, clone 1A5).

Kd [1] [nM] | koff [1] [s⁻¹] | kon [1] [M⁻¹ s⁻¹] | binding result (human Siglec-14) | Binder
79 | 0.00068 | 8600 | no binding | S5-G-10 (antibody, V domains shown, Mouse-derived variable domains; expressed in mammalian cells as full antibody; hIgG1 isotype control) VH: QAYLQQSGAELVKPGASVKLSCKASGYIFTEYTIHWVKQRSGQGLEWIGWFYPGSGSIKYNEKFKDKATLTADKSSSTVYMELSRLTSEDSAVYFCATHERAAQAAWSAYWGQGTLVTVSA VL: DVQMNQSPASLSASVGETVTITCRASGNIHNYLAWYQQKQGKSPQLLVYNAKTLTDGVPSRFSGSGSGTQYSLKINTLQPEDFGSYYCQHFWSTPYTFGGGTKLEMK
≤ 0.42 | ≤ 1e-05 | 24000 | no binding | S5-G-07 (antibody, V domains shown, Mouse-derived variable domains; expressed in mammalian cells as full antibody; hIgG1 isotype control; also called SG-5-07) VH: QAYLQQSGAELARPGASVKMSCKASGYTFSSYTMYWVKQRPGQGLEWIGYINPSSGYTEYNQKFKDKATLTADKSSSTAYMQLISLTSEDSAVYYCARSDSKGDYWGQGTTLTVSS VL: DVVMTQSPSSLSASLGERVSLTCRASQDIGNSLNWLQQEPDGTIKRLISATSSLDSGVPKRFSGSRSGSDYSLTISSLESEDFVDYYCLQYASSPLTFGAGTKLELK
61 | 0.0013 | 21000 | no binding | S5-183 (antibody, V domains shown, Mouse-derived variable domains; expressed in mammalian cells as full antibody; hIgG1 isotype control) VH: QAYLQQSGPGLVAPSQSLSITCTVSGFSVTSYGVSWVRQPPGKGLEWLGVIWGDGSTNYHSDLISRLSISKDNSKSQVFLKLNSLQIADTATYYCARPRAFYYGSRGYWYFDVWGTGTTVAVSS VL: DIVMTQSPASLSASVGETVTITCRASENIYSYLAWYQQKQGKSPQLLVYNTKTLVEGVPSRFSGSGSDTQFSLKINSLQPEDFGTYYCQHHYGPPPTFGTGTKLELK
31 | 0.0011 | 36000 | no binding | S5-202 (antibody, V domains shown, Mouse-derived variable domains; expressed in mammalian cells as full antibody; also called S5-PN202) VH: QAYLQQSGPGLVAPSQSLSITCTVSGLSLTSYGVSWVRQPPGKGLEWLGVIWGDGSTNYHSALISRLSISKDNSKSQVFLKLNSLQTDDTATYYCAKPGAFYYGSRYYWYFDVWGTGTTVTVSS VL: DIQMTQAHKVMSTSVGDRVSITCKASQDVSTAVAWYQQKPGQSPKLLIYSASYRYTGVPDRFTGSGSGTDFTFTISSVQAEDLAVYYCQQHYSPPPTFGGGTRREIK
0.85 | 0.00046 | 540000 | no binding | S5-190 (antibody, V domains shown, Mouse-derived variable domains; same VH entry as S5-172; expressed in mammalian cells as full antibody; hIgG1 isotype control) VH: QAYLQQSGPELVKPGASVKVSCKASGYSLTDYNMYWVKQSHGKSLEWIGYIDSYNGGTRYNQKFKGKATLTVDKSSSTAFMHLNSLTSEDSAVYYCAREGFGYDDREWFAYWGQGTLVTVSA VL: DIQMTQTPSSLAVSVGEKVTLSCKSSQSLLYSTNQMNFLAWYQQKPGQSPKLLIYWASTRESGVPDRFAGSGSGTDFTLTISSVKAEDLAVYYCQQFYSYPFTFGSGTELEIK
1.1 | 0.00051 | 470000 | no binding | S5-176 (antibody, V domains shown, Mouse-derived variable domains; expressed in mammalian cells as full antibody; hIgG1 isotype control) VH: QAYLQQSGPELVKPGASVKVSCKASGYSFTDYNIYWVKQSHGKSLEWIGYFDPYNGGTNYNQRFKDKATLTVDKSSSTAFMQLNSLTSEDSAVYYCAREGYGYDDREWFAYWGQGTLVTVSA VL: DIVMTQSPSSLAASVGEKVTMSCKSSQSLLYSTNQMTYLAWYQQKPGQSPKLLIFWASTRESGVPDRFTGSGSGTDFTLTISSVKAEDLAVYYCHQFYSYPFTFGSGTRWEIK
5.3 | 0.00085 | 160000 | no binding | S5-182 (antibody, V domains shown, Mouse-derived variable domains; expressed in mammalian cells as full antibody; hIgG1 isotype control) VH: QAYLQQSGAELVKPGASVKLSCKASGYTFTSYWLHWVKQRPGQGLEWIGMIHPNSGSTDYNERFKSKATLIVDKSSSTAYMQLSSLTSEDSAVYYCAKTFYYFDYWGQGTALTVSS VL: DVVMTQSPSSMYASLGERVTITCKASQDINSYLSWFQQKPGKSPKTLIYRANRLVDGVPSRFSGSGSGQDYSLTISSLEYEDMGIYYCLQYDELYTFGGGTKLEIK
1.7 | 0.00043 | 250000 | no binding | S5-174 (antibody, V domains shown, Mouse-derived variable domains; expressed in mammalian cells as full antibody; hIgG1 isotype control) VH: QAYLQQSGAELVKPGTSVKLSCKASGYTFTNYWMHWVKQRPGQGLEWVGEIDPSDGYVTYNQNFKGKATLTVDRSSSTAYMQLSSLTSEDSAVYYCAGVYYGNSIYYAMDYWGQGTSVTVSS VL: DIQMTQTRNFMSTSVGDRVNITCKATQDVGTAVAWYQVKPGQSPKLLIYWTSTRHTGVPDRFTGSGSGTDFTLTIKNVQSEDLADYFCQQYRSYPFTFGSGTKLEIK
15 | 0.00045 | 29000 | no binding | S5-175 (antibody, V domains shown, Mouse-derived variable domains; expressed in mammalian cells as full antibody; hIgG1 isotype control) VH: QAYLQQSGAVLARPGASVRMSCKASGYSFTSYYMHWVKQRPGQGLEWIGAIYPGNSDTSYNQKFKGKAKLTAVTSASTAYMEVSSLTNEDSAVYYCTPLVRPRPYGMDYWGQGTSVTVSS VL: DVVLTQSTSSLSASLGDRVTISCRASQDISNYLNWYQQKPDGTVKLLIYYTSRLHSGVPSRFSGSGSGTDYSLTISNLEQEDIATYFCQQGNTLPWTFGGGTKLEIK
